Assay results: patent publication JPH09322796A (dated 1997)

T1: Fas抗原 on the human lymphocyte cell line HPB−ALL (human, UniProt P25445 26-335)
T1 sequence (looked up): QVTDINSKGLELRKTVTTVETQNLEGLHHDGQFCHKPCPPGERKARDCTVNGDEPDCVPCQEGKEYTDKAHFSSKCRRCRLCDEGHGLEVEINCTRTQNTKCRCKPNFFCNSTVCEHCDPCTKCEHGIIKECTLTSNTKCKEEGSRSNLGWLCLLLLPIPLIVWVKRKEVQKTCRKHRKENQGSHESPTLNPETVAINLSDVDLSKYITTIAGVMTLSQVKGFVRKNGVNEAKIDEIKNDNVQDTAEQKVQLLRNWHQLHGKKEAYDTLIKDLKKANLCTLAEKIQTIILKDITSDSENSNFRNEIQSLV


Key:
[1] = biological target: ヒトFas抗原の細胞外領域とマウスインターロイキン3受容体の細胞外領域との融合タンパク質 (fusion of human Fas extracellular region and mouse IL-3 receptor extracellular region, from phFas-AIC2) (human; mouse) (UniProt P25445); experiment: ELISA, COS-1 supernatant with human Fas-mouse IL-3 receptor fusion coated, detection with peroxidase-labelled rat anti-mouse IgM; PBS blank 0.104
[2] = biological target: T1, Fas抗原 on the human lymphocyte cell line …; experiment: cell-based or functional assay

OD 405 −OD 492 [1] | ED 50 (ng/ml) (MTT assay, HPB-ALL cells)) [2] | OD 590 −OD 620 (MTT assay, HPB-ALL cells, 12 h; higher = more living cells) [2] | Binder | cytotoxic activity relative to CH11 or to the product of supernatant [F] [2]
0.445 | 21.2 ng/mL | – | マウス抗ヒトFasモノクローナル抗体CH11 (mouse anti-human Fas monoclonal antibody CH11, purified from hybridoma culture supernatant) (antibody, mouse IgM) heavy: EVQLQQSGPELVKPGASVKISCKASGYTFTDYNMHWVKQSHGKSLEWIGYIYPYNGGTGYNQKFKSKATLTVDNSSSTAYMELRSLTSEDSAVYYCARSYYAMDYWGQGTSVTVSSESQSFPNVFPLVSCESPLSDKNLVAMGCLARDFLPSTISFTWNYQNNTEVIQGIRTFPTLRTGGKYLATSQVLLSPKSILEGSDEYLVCKIHYGGKNRDLHVPIPAVAEMNPNVNVFVPPRDGFSGPAPRKSKLICEATNFTPKPITVSWLKDGKLVESGFTTDPVTIENKGSTPQTYKVISTLTISEIDWLNLNVYTCRVDHRGLTFLKNVSSTCAASPSTDILTFTIPPSFADIFLSKSANLTCLVSNLATYETLNISWASQSGEPLETKIKIMESHPNGTFSAKGVASVCVEDWNNRKEFVCTVTHRDLPSPQKKFISKPNEVHKHPPAVYLLPPAREQLNLRESATVTCLVKGFSPADISVQWLQRGQLLPQEKYVTSAPMPEPGAPGFYFTHSILTVTEEEWNSGETYTCVVGHEALPHLVTERTVDKSTGKPTLYNVSLIMSDTGGTCY light: DVVMTQSPLSLPVSLGDQASISCRSSKSLVHSNGNTYLHWYLQKPGQSPKLLIYKVSNRFSGVPDRFSGSGSGTDFTLKISRVEAEDLGVYFCSQSTHVPPAFGGGTKLEIKRADAAPTVSIFPPSSEQLTSGGASVVCFLNNFYPKDINVKWKIDGSERQNGVLNSWTDQDSKDSTYSMSSTLTLTKDEYERHNSYTCEATHKTSTSPIVKSFNRNEC DDEATILADNKCMCTRVTSRIIPSTEDPNEDIVERNIRIVVPLNNRENISDPTSPLRRNFVYHLSDVCKKCDPVEVELEDQVVTATQSNICNEDDGVPETCYMYDRNKCYTTMVPLRYHGETKMVQAALTPDSCYPD | –
0.135 | – | 0.887 | pLEX004のみで形質転換したCOS−1細胞の培養上清[C] (CH11 L chain expressed alone) (other) light: DVVMTQSPLSLPVSLGDQASISCRSSKSLVHSNGNTYLHWYLQKPGQSPKLLIYKVSNRFSGVPDRFSGSGSGTDFTLKISRVEAEDLGVYFCSQSTHVPPAFGGGTKLEIKRADAAPTVSIFPPSSEQLTSGGASVVCFLNNFYPKDINVKWKIDGSERQNGVLNSWTDQDSKDSTYSMSSTLTLTKDEYERHNSYTCEATHKTSTSPIVKSFNRNEC | –
0.33 | 4.5 ng/mL | 0.176 | 上清[E](pHEX126+pLEX004)に含まれる生産物 (recombinant CH11 H chain + L chain without J chain, COS-1 culture supernatant) (antibody) heavy: EVQLQQSGPELVKPGASVKISCKASGYTFTDYNMHWVKQSHGKSLEWIGYIYPYNGGTGYNQKFKSKATLTVDNSSSTAYMELRSLTSEDSAVYYCARSYYAMDYWGQGTSVTVSSESQSFPNVFPLVSCESPLSDKNLVAMGCLARDFLPSTISFTWNYQNNTEVIQGIRTFPTLRTGGKYLATSQVLLSPKSILEGSDEYLVCKIHYGGKNRDLHVPIPAVAEMNPNVNVFVPPRDGFSGPAPRKSKLICEATNFTPKPITVSWLKDGKLVESGFTTDPVTIENKGSTPQTYKVISTLTISEIDWLNLNVYTCRVDHRGLTFLKNVSSTCAASPSTDILTFTIPPSFADIFLSKSANLTCLVSNLATYETLNISWASQSGEPLETKIKIMESHPNGTFSAKGVASVCVEDWNNRKEFVCTVTHRDLPSPQKKFISKPNEVHKHPPAVYLLPPAREQLNLRESATVTCLVKGFSPADISVQWLQRGQLLPQEKYVTSAPMPEPGAPGFYFTHSILTVTEEEWNSGETYTCVVGHEALPHLVTERTVDKSTGKPTLYNVSLIMSDTGGTCY light: DVVMTQSPLSLPVSLGDQASISCRSSKSLVHSNGNTYLHWYLQKPGQSPKLLIYKVSNRFSGVPDRFSGSGSGTDFTLKISRVEAEDLGVYFCSQSTHVPPAFGGGTKLEIKRADAAPTVSIFPPSSEQLTSGGASVVCFLNNFYPKDINVKWKIDGSERQNGVLNSWTDQDSKDSTYSMSSTLTLTKDEYERHNSYTCEATHKTSTSPIVKSFNRNEC | ~5 fold
0.109 | – | 0.876 | pHEX126のみで形質転換したCOS−1細胞の培養上清[B] (CH11 H chain expressed alone) (other) heavy: EVQLQQSGPELVKPGASVKISCKASGYTFTDYNMHWVKQSHGKSLEWIGYIYPYNGGTGYNQKFKSKATLTVDNSSSTAYMELRSLTSEDSAVYYCARSYYAMDYWGQGTSVTVSSESQSFPNVFPLVSCESPLSDKNLVAMGCLARDFLPSTISFTWNYQNNTEVIQGIRTFPTLRTGGKYLATSQVLLSPKSILEGSDEYLVCKIHYGGKNRDLHVPIPAVAEMNPNVNVFVPPRDGFSGPAPRKSKLICEATNFTPKPITVSWLKDGKLVESGFTTDPVTIENKGSTPQTYKVISTLTISEIDWLNLNVYTCRVDHRGLTFLKNVSSTCAASPSTDILTFTIPPSFADIFLSKSANLTCLVSNLATYETLNISWASQSGEPLETKIKIMESHPNGTFSAKGVASVCVEDWNNRKEFVCTVTHRDLPSPQKKFISKPNEVHKHPPAVYLLPPAREQLNLRESATVTCLVKGFSPADISVQWLQRGQLLPQEKYVTSAPMPEPGAPGFYFTHSILTVTEEEWNSGETYTCVVGHEALPHLVTERTVDKSTGKPTLYNVSLIMSDTGGTCY | –
0.107 | – | 0.883 | pJEX004のみで形質転換したCOS−1細胞の培養上清[D] (CH11 J chain expressed alone) (other) DDEATILADNKCMCTRVTSRIIPSTEDPNEDIVERNIRIVVPLNNRENISDPTSPLRRNFVYHLSDVCKKCDPVEVELEDQVVTATQSNICNEDDGVPETCYMYDRNKCYTTMVPLRYHGETKMVQAALTPDSCYPD | –
0.202 | 22.9 ng/mL | 0.242 | 上清[F](pHEX126、pLEX004+pJEX004)に含まれる生産物 (recombinant CH11 H chain + L chain + J chain, COS-1 culture supernatant) (antibody) heavy: EVQLQQSGPELVKPGASVKISCKASGYTFTDYNMHWVKQSHGKSLEWIGYIYPYNGGTGYNQKFKSKATLTVDNSSSTAYMELRSLTSEDSAVYYCARSYYAMDYWGQGTSVTVSSESQSFPNVFPLVSCESPLSDKNLVAMGCLARDFLPSTISFTWNYQNNTEVIQGIRTFPTLRTGGKYLATSQVLLSPKSILEGSDEYLVCKIHYGGKNRDLHVPIPAVAEMNPNVNVFVPPRDGFSGPAPRKSKLICEATNFTPKPITVSWLKDGKLVESGFTTDPVTIENKGSTPQTYKVISTLTISEIDWLNLNVYTCRVDHRGLTFLKNVSSTCAASPSTDILTFTIPPSFADIFLSKSANLTCLVSNLATYETLNISWASQSGEPLETKIKIMESHPNGTFSAKGVASVCVEDWNNRKEFVCTVTHRDLPSPQKKFISKPNEVHKHPPAVYLLPPAREQLNLRESATVTCLVKGFSPADISVQWLQRGQLLPQEKYVTSAPMPEPGAPGFYFTHSILTVTEEEWNSGETYTCVVGHEALPHLVTERTVDKSTGKPTLYNVSLIMSDTGGTCY light: DVVMTQSPLSLPVSLGDQASISCRSSKSLVHSNGNTYLHWYLQKPGQSPKLLIYKVSNRFSGVPDRFSGSGSGTDFTLKISRVEAEDLGVYFCSQSTHVPPAFGGGTKLEIKRADAAPTVSIFPPSSEQLTSGGASVVCFLNNFYPKDINVKWKIDGSERQNGVLNSWTDQDSKDSTYSMSSTLTLTKDEYERHNSYTCEATHKTSTSPIVKSFNRNEC DDEATILADNKCMCTRVTSRIIPSTEDPNEDIVERNIRIVVPLNNRENISDPTSPLRRNFVYHLSDVCKKCDPVEVELEDQVVTATQSNICNEDDGVPETCYMYDRNKCYTTMVPLRYHGETKMVQAALTPDSCYPD | –
